System: K4 kissing-loop RNA reporter
Test: apparent KD of K4 kissing-loop reporter; higher = weaker reporter binding
Settings: Eterna round: R107
Protocol: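 RNA-MaP round R107: designed RNA switches with theophylline, tryptophan, arginine or FMN aptamers are transcribed on-chip within common flanks. They are titrated with a labelled K4 kissing-loop RNA reporter in RNA-MaP buffer (100 mM Tris pH 7.5, 80 mM KCl, 4 mM MgCl2), without ligand or with the indicated ligand. Median apparent KD per design.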

[1] = input ligand: theophylline 20 uM
[2] = input ligand: tryptophan 2.4 mM
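Further: bound reporter read as fluorescence of individual clusters on recovered sequencing chips by microscopy, with normalized cluster intensities fitted with a binding model.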

Sequence | apparent KD of K4 kissing-loop reporter (input ligand: FMN 200 uM) [nM] | apparent KD of K4 kissing-loop reporter (input ligand: arginine 13.2 mM) [nM] | apparent KD of K4 kissing-loop reporter (input ligand: none) [nM] | apparent KD of K4 kissing-loop reporter [1] [nM] | apparent KD of K4 kissing-loop reporter [2] [nM]
UGUGGAGGAUAUGAUACCAGCAGUGAGAGAGAGGAAGUAUAGUGAUGUUAUAUGAGAGAAUGCCCUUGGCAGCGUGUGUAGUAGG [SSTheophylB.J] | 189 | 165 | 200 | 153 | 210
AAUAUAUAGUGAAGGAGCGCGUAUUGCAGUGAUGUUGCUAAGUUAUUAUUAUCUAUUUUUACGCAGGUAGGUCGCACUAUAUAUA [JR_SSArginiB_Sub014] | 213 | 231 | 224 | 245 | 193
UUACGAGUGAUGUUCGAAUAAAUCCAUUCAGAGGAUAUAGUAUUAACUAGAAGGCUGAAACCAACUUCGAGUGAUGUUCGAGGAU [Same State FMN A GF 3] | 94.5 | 87.7 | 108 | 88.4 | 90.8
GGAUAGGACAAAGGAUAUGGGCUAGGCAAGAAUAACUUGUCUAGCAAAUCCAUGAGGAGUGAUGUUCCAGAAGGUUGUCCUAUCG [FmnBX 1 A11+U75] | 624 | 116 | 122 | 127 | 107
GGAUAGGAUAGAGGAUAUGGUUUAUGCAGGAAUAACUUAUUGUGUAAAUCCAUAGGGAGUGAUGUUCCAGAAGGCUGUCCUAUCG [MatMod 14 - Jieux - Exclusion - FMN B] | 379 | 218 | 230 | 249 | 183
GCCGUACGCACGGAUACCAGCACUCGGUGAGUGAUGUUCACGGUGUGGUAUUCAUCGGGCUGCCCUUGGCAGCCGUGCGUACGGC | 153 | 93.6 | 101 | 129 | 107
GGAUCCACCAGUGAUGUUGGAGAAAACUCGAAGGAUAUGACGAAAGUCAGAAGGUUGUAGACUGGACAAAGUCCGGUCGGAUCCA [FmnA 23 G30+U56] | 843 | 466 | 549 | 590 | 421
UGACUGGAUUGAAGGAGCGCUAAACUCCUAGUGAUGUUAGGGAAACAAGACAAAGUCUUGAGGCAGGUAGGUCGCAAUCUAGUCU [FiskerMod 4 - Jieux - Same State - Arginine B] | 182 | 149 | 173 | 234 | 175
CUUAAGAUAUGAGUGAUGUUUAUGUCCGAAGGAGCGUGCGAAAGUACAGGUAGGUCGCGGAUGUGAGUGAUGUUCAUGUAAGCGA [KL-XArg-A13 #analogue] | 132 | 87.9 | 114 | 109 | 106
UUUGGAGUGGGAGGAUAUCCUAAUAUGGGUGAUGUUAGCGAUGUUGAAGGUGUAGUGAUGUUAUGCGGAGAAGGCCCAGUGUAGA [BDazzled - #18 - Exc. FMN B] | 166 | 146 | 245 | 273 | 221
UGGAGUUGACGAAAAGUCAACUCCUGAGAUACCAGUGACGAAAGUCACCCUUGGCAGCUCACUGCCAGUGAUGUUGGAAGAUAAA [whbob_SS_Theo_A_w46] | 208 | 149 | 438 | 289 | 585
ACGCGCGCGAGUGAUGUUCGGAGCGGCUGGCAGGAUAUGUAGCAAUGCAGAAGGGUCGUGGCGGGCGCGGCGAAAGCCGCGCCCG [#2 Exclusion - FMN A Attempt #6 (HarryS)] | 150 | 282 | 444 | 622 | 293
GCCGUAGAUUGAAGGAGCGCCUUCUUACCAAGAGUGAUGUUCUUAGGUACCAUGUUCAGUAGGCAGGUAGGUCGCAAUCUACGGC | 499 | 441 | 484 | 647 | 489
UUACUGAGUGAUGUUUGGAAAUAUCCUAGGCAGGAUAUGCGGAAACGCAGAAGGGCCACCUUCUAGUGAAGGAAACUUCGCUAUU [Ex FMN A 4] | 536 | 284 | 423 | 397 | 379
UGAUACCAGACUGAUACCAGCCAGUGAUGUUGGCUAAUCCAAGAAGGAGUCAAAGACUCCGGCCCUUGGCAGCAGUCUGGUAUCU [TheoBX 3 #SwitchBubble #StaticStem] | 117 | 104 | 111 | 110 | 109
GGCAUAUAAAAUUGCCUAGAGAGAAAGGAUACCAGCACCCGGCGGUGCCCUUGGCAGCCUAGCCCAGUGAUGUUGGGUCCUCUAA [Esinvege] | 237 | 130 | 189 | 235 | 223

From the supplement of paper PMC9170038
